Results taken from PMC3488048 (The Journal of Biological Chemistry, 2012).
Where no end group is shown, it is not given here.

Molecular target: Kindlin-3 (full-length, C-terminal His6 tag removed, for NMR) (mouse, UniProt Q8K1B8 1-665)
Experiment: NMR titration

Chain of Kindlin-3 (full-length, C-terminal His6 tag removed, for NMR) (Q8K1B8 whole entry): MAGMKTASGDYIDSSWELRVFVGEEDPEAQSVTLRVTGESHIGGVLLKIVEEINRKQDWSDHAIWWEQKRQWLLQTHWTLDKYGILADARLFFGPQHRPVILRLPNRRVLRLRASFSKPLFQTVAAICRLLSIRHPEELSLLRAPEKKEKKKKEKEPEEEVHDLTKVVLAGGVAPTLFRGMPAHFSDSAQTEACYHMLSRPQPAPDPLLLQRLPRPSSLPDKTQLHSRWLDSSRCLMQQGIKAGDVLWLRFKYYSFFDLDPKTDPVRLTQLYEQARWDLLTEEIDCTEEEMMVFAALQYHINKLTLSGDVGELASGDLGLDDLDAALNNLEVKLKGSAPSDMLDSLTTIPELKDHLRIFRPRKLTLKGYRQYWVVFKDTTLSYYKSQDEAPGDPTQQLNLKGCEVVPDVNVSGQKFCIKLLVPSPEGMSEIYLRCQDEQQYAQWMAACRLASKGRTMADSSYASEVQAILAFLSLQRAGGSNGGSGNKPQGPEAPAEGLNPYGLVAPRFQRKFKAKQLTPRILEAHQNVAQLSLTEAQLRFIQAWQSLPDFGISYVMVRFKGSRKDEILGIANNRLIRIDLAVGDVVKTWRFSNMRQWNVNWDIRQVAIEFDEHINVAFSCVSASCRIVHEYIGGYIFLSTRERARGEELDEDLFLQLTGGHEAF

B1: integrin β1A cytoplasmic tail (domain or fragment, UniProt P05556-1 752-798, looked up)
chain: KLLMIIHDRREFAKFEKEKMNAKWDTGENPIYKSAVTTVVNPKYEGK
modifications: also: uniformly 15N-labelled
Kd: ~50 µM

B2: integrin β1D cytoplasmic tail (domain or fragment, UniProt P05556-5 752-801, looked up)
chain: KLLMIIHDRREFAKFEKEKMNAKWDTQENPIYKSPINNFKNPNYGRKAGL
modifications: also: uniformly 15N-labelled
Kd: ~50 µM
